Consider two molecules from publication PMC6276866 (Circulation, 2018).

Sequences and labels used below:
B1: recombinant B56α protein (natural protein)
chain: not shown
B2: purified recombinant mutant AnkB (p.Q1283H) (SPR) (natural protein)
chain: MMNEDAAQKSDSGEKFNGSSQRRKRPKKSDSNASFLRAARAGNLDKVVEYLKGGIDINTCNQNGLNALHLAAKEGHVGLVQELLGRGSSVDSATKKGNTALHIASLAGQAEVVKVLVKEGANINAQSQNGFTPLYMAAQENHIDVVKYLLENGANQSTATEDGFTPLAVALQQGHNQAVAILLENDTKGKVRLPALHIAARKDDTKSAALLLQNDHNADVQSKMMVNRTTESGFTPLHIAAHYGNVNVATLLLNRGAAVDFTARNGITPLHVASKRGNTNMVKLLLDRGGQIDAKTRDGLTPLHCAARSGHDQVVELLLERGAPLLARTKNGLSPLHMAAQGDHVECVKHLLQHKAPVDDVTLDYLTALHVAAHCGHYRVTKLLLDKRANPNARALNGFTPLHIACKKNRIKVMELLVKYGASIQAITESGLTPIHVAAFMGHLNIVLLLLQNGASPDVTNIRGETALHMAARAGQVEVVRCLLRNGALVDARAREEQTPLHIASRLGKTEIVQLLLQHMAHPDAATTNGYTPLHISAREGQVDVASVLLEAGAAHSLATKKGFTPLHVAAKYGSLDVAKLLLQRRAAADSAGKNGLTPLHVAAHYDNQKVALLLLEKGASPHATAKNGYTPLHIAAKKNQMQIASTLLNYGAETNIVTKQGVTPLHLASQEGHTDMVTLLLDKGANIHMSTKSGLTSLHLAAQEDKVNVADILTKHGADQDAHTKLGYTPLIVACHYGNVKMVNFLLKQGANVNAKTKNGYTPLHQAAQQGHTHIINVLLQHGAKPNATTANGNTALAIAKRLGYISVVDTLKVVTEEVTTTTTTITEKHKLNVPETMTEVLDVSDEEGDDTMTGDGGEYLRPEDLKELGDDSLPSSQFLDGMNYLRYSLEGGRSDSLRSFSSDRSHTLSHASYLRDSAVMDDSVVIPSHQVSTLAKEAERNSYRLSWGTENLDNVALSSSPIHSGFLVSFMVDARGGAMRGCRHNGLRIIIPPRKCTAPTRVTCRLVKRHRLATMPPMVEGEGLASRLIEVGPSGAQFLGPVIVEIPHFAALRGKERELVVLRSENGDSWKEHFCDYTEDELNEILNGMDEVLDSPEDLEKKRICRIITRDFPQYFAVVSRIKQDSNLIGPEGGVLSSTVVPQVQAVFPEGALTKRIRVGLQAQPMHSELVKKILGNKATFSPIVTLEPRRRKFHKPITMTIPVPKASSDVMLNGFGGDAPTLRLLCSITGGTTPAQWEDITGTTPLTFVNECVSFTTNVSARFWLIDCRQIQESVTFASHVYREIICVPYMAKFVVFAKSHDPIEARLRCFCMTDDKVDKTLEQQENFAEVARSRDVEVLEGKPIYVDCFGNLVPLTKSGQHHIFSFFAFKENRLPLFVKVRDTTQEPCGRLSFMKEPKSTRGLVHQAICNLNITLPIYTKESESDQEQEEEIDMTSEKNPQDEQERIEERLAYIADHLGFSWTELARELDFTEEQIHQIRIENPNSLQDQSHALLKYWLERDGKHATDTNLVECLTKINRMDIVHLMETNTEPLQERISHSYAEIEQTITLDHSEGFSVLQEELCTAQHKQKEEQAVSKESETCDHPPIVSEEDISVGYSTFQDGVPKTEGDSSATALFPQTHKEQVQQDFSGKMQDLPEESSLEYQQEYFVTTPGTETSETQKAMIVPSSPSKTPEEVSTPAEEEKLYLQTPTSSERGGSPIIQEPEEPSEHREESSPRKTSLVIVESADNQPETCERLDEDAAFEKGDDMPEIPPETVTEEEYIDEHGHTVVKKVTRKIIRRYVSSEGTEKEEIMVQGMPQEPVNIEEGDGYSKVIKRVVLKSDTEQSEDNNE

Assay [1] concerns the target purified recombinant AnkB, wild type (SPR) (UniProt Q01484-2 1-1872). As to the kind of experiment: SPR. (Surface plasmon resonance follows binding to a sensor surface in real time, without labels.)
The assay “recombinant B56α protein” addresses B1. As to the kind of experiment: SPR.

In general, Kd refers to the constant that tells how readily two partners part at equilibrium.

Chain of recombinant B56α protein (Q15172 whole entry): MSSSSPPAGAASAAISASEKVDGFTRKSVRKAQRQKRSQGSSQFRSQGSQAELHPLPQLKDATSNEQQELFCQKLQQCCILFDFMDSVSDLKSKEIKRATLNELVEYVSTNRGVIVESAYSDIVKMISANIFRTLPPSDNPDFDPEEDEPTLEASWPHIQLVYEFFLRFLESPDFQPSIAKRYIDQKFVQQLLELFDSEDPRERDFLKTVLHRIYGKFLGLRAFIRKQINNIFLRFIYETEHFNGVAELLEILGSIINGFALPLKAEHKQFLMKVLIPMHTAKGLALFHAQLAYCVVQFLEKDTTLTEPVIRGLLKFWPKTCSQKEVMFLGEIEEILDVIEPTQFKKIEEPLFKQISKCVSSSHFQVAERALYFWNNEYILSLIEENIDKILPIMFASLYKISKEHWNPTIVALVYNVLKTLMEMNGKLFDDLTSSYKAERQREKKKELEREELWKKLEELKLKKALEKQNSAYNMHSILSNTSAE

On to B1, for which the dissociation constant (Kd) in assay [1] was 1.64 ± 0.05 µM.

As for B2, the Kd with recombinant B56α protein was 22.2 ± 6.42 µM.
